Experiment: yeast display, Sf9 membrane polyspecificity reagent, FACS + sequencing; frameworks hold sequencing errors
How it was run: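 Nanobodies came from a synthetic yeast display library in Saccharomyces cerevisiae BJ5465, induced with galactose for 36–48 hours and stained for 1 hour at 4 °C with 10% biotinylated, detergent-solubilized Sf9 membrane reagent. Cells were enriched on streptavidin microbeads and then FACS-sorted, with low and high (top ~1%) gates set on anti-HA fluorescence for expression and streptavidin fluorescence for reagent binding. Each polyreactivity label reflects the gate a clone came from. Genes were amplified by colony PCR, sequenced by MiSeq 2 × 250 and filtered by CDR length.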

Row | Sequence | polyreactivity (PSR sort gate)
1 | QVQLVESGGGLVQAGGSLRVSCAASGFTFPWYAMGWYRPAPGKERELVASISYRGDSTYYADSVKGRFTISRDNAKITVYLQMNSLKPEDTSVYYCNKRLDSYYLPGFDYWGQGTQVTVSS | low polyreactivity
2 | QVQLVESGGGLVQAGGSLRVSCAASGFTLQRNTMGWYRQAPGKEREFVAAISVRGGSTYYADSVKGRFTISRDNAQNTVYLQMNSLKPEDTAVYYCAAVGRPTQYSYPYGYWGQGTQVTVSS | high polyreactivity
3 | QVQLVESGGGLVQAGGSLRVSCAASGIIFNRYAMGWSREAPGKERELVAAITSSGGSTHYADSVKGRFTISRDNAKNTVYLQMNSLKPEDTAVYYCAKQFPYNYRYYLHYYYWGQGTQVTVSS | low polyreactivity
4 | QVQLVESGGGLVQAGGSLRVSCAASGIIFRYNAMGWSRQAPGKESELVAAITSGGITKYADSVKGRFTISRDNAKNTVYLQMNSLKPEDTAVYYCNAEYGFDRAGSRGEYWGQCTQVTVSS | low polyreactivity
5 | QVQLVESGGGLVQAGGSLRVSCAASGITSPYNAMGWYRQAPGKERELVAGITSGDSTDYADSVKGRFTISRDNAKNTVYLQMNSLKPEDTAVYYCAADSIRYCDYDYWGHGTQVTVSS | low polyreactivity
6 | QVQLVESGGGLVQAGGSLRVSCAASGLIFYRYAMGWYRQAPGKERELVAAITTRGGSTYYADSVKGRFTISRDNAKITVYLQMNSLKPEDTAVYYCATYFRAKGYTGRYYYWGQGTQVTVSS | high polyreactivity
7 | QVQLVESGGGLVQAGGSLRVSCAASGRIFDENAMGWYRPAPGKERELVAAIDWSGGSTYYADSVKGRFTISRDYAKNTVYLQMNRQKPEDTAVYYCNADYYYYVSLGWWSFIVSEYDYWGHGTQVTVSS | low polyreactivity
8 | QVQLVESGGGLVQAGGSLRVSCAASGRNFYYYAMGGYRQAPGKERELVAAINWSGGGTYYADSVKGRFTISRDNAKNTVYFQMNSLKPEDTAVYYCAAGFRYRYYWGQGTQVTVSS | high polyreactivity
9 | QVQLVESGGGLVQAGGSLRVSCAASGRTFRPNAMGWYRQAPGKERELVAAISGGGGSTYYADSVKGRFTISRDIAKNTVYLLMNSLKPEVTAVYYCNKVEQGRYGYWGQGTQVTVSS | high polyreactivity
10 | QVQLVESGGGLVQAGGSLRVSCAASGRTSSINAMGWYREAPGKERELVAVITGRGGSTYYADSVKGRCTISRDNAKNTVYLQINSLKPEDTAVYYCAARRVPSVSGTYDYWGQGTQVTVSS | high polyreactivity
11 | QVQLVESGGGLVQAGGSLRVSCAASGSIFQANAMGGYRQAPGKERELVAASRWSGGSTNYPDSVKGRFSISRDNAKNTVYLPMNSLKPEDTAVYYCAAKRFSSPYWEYYWGQGTQVTVSS | high polyreactivity
12 | QVQLVESGGGLVQAGGSLRVSCAASGSNFLGYTMGWYRQAPGKERELVAAINSSGGSTYYADSVKGRFTISRDNAKNNVYLQMNSLKPEDTAVYYCADANSILLFDSWGQGTQVTVSS | low polyreactivity
13 | QVQLVESGGGLVQAGGSLRVSCAASGSTFQYNAMGWYRQAPGKERELVAVITRRGGRTYYADSVKGRFTISRDNAKNSVYLQLNSLKAEDTAVYYCAAYFDYTHRFYYWGQGTQVTVSS | high polyreactivity
14 | QVQLVESGGGLVQAGGSLRVSCAASGSTFRRNNMGWYRQAPGKERELVAGISSSGGSTYYADSVKGRFTISRDNAKNTVYLQMNSLKPEDTAVYYCDARFYVSYVGYNYWGQGTQVTVSS | high polyreactivity
15 | QVQLVESGGGLVQAGGSLRVSCAASGSTFWSYAMGGYRQAPGKARELVAGITQSGGSTYYADSVKGRFTISRDTAKHTLYLQMNSLQPEDTAVYDCAKDGRVSGDFDYWGQGTQGTVSS | low polyreactivity
16 | QVQLVESGGGLVQAGGSLRVSCAASGYIFYGNTMGWYRQAPGKEWELVAAISYDGGSTYYADSVKGRFTISRDNAKNTVYLQMNSLKPEDTAVYYCAADTFSFRWSDYWGQGTQVTVSS | low polyreactivity
17 | QVQLVESGGGLVQAGGSLRVSCAASGYTIKYYAMGWYRQAPGKERELVAAISKDGGSTYYADSVKGRFTISRDNAKNTVYLQMNSLKPEDTAVYYCAAKSNVRYGWREFYWGQGTQVTVSS | high polyreactivity

Source: the nanobody polyreactivity screen of Harvey et al. (2022)
